Laboratory results as given in article PMC6645366.

What was measured:
PUM2 RNA-binding domain [1] = target: T1, PUM2 RNA-binding domain (Homo sapiens, UniProt Q8TB72 706-1059); assay: competition EMSA
PUM2 RNA-binding domain [2] = target: T1, PUM2 RNA-binding domain; assay: EMSA
PUM2 RNA-binding domain [3] = target: T1, PUM2 RNA-binding domain; assay: EMSA; remark: listed apart in the source

T1 sequence (Q8TB72 706-1059): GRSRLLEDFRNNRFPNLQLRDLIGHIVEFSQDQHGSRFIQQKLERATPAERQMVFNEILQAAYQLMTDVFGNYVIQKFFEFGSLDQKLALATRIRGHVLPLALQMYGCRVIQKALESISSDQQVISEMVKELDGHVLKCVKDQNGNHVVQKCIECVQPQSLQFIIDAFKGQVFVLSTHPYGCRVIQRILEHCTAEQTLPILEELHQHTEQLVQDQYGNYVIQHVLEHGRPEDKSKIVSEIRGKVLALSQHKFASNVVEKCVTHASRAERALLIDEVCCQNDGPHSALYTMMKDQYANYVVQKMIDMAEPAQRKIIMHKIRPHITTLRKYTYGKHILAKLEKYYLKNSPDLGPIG

B1: 8-mer 7G (ssRNA)
RNA: UGUAUAGA
binding result (PUM2 RNA-binding domain [1]): binds

B2: CUUGUAUAUAG (ssRNA)
RNA: CUUGUAUAUAG
binding result (PUM2 RNA-binding domain [2]): binds

B3: 8-mer 5G (ssRNA)
RNA: UGUAGAUA
binding result (PUM2 RNA-binding domain [1]): binds

B4: 8-mer consensus (ssRNA)
RNA: UGUAUAUA
binding result (PUM2 RNA-binding domain [1]): binds

B5: S1a RNA (ssRNA)
RNA: UCUCUUUGUAUAUAUCUCUU
binding result (PUM2 RNA-binding domain [3]): binds
